One molecule from paper PMC10397247 can be followed below.

Assay in all cases: two-hybrid library CCmax;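 further: natural log of median RNA to DNA barcode read ratio; higher means stronger binding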
In one assay the target is T1, APC5531-AA.
T1 chain: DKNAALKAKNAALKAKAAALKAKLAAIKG
The following applies: mean of both orientations.

The target in a further assay is T2, APC9291-AA.
T2 chain: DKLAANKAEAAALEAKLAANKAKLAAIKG
To be noted: mean of both orientations.

The target in the next assay is T3, APC542-AA.
T3 chain: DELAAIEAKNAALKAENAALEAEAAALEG
To be noted: mean of both orientations.

The next assay deals with T4, APC3354-AA.
T4 chain: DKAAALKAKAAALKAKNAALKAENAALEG
To be noted: mean of both orientations.

The next assay deals with T5, APC2556-AA.
T5 chain: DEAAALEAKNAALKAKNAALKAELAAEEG
To be noted: mean of both orientations.

The next assay concerns the target T6, APC2474-AA.
T6 chain: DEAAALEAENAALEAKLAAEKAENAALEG
To be noted: mean of both orientations.

The target of another assay is T7, APC2375-AA.
T7 chain: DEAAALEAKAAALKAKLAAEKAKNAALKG

In the next assay the target is T8, APC8401-AA.
T8 chain: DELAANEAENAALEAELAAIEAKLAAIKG
The following applies: mean of both orientations.

Another assay concerns the target T9, APC3323-AA.
T9 chain: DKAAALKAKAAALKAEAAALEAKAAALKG
The following applies: mean of both orientations.

A further assay deals with T10, APC2724-AA.
T10 chain: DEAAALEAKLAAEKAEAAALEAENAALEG
To be noted: mean of both orientations.

The target in the next assay is T11, APC9806-AA.
T11 chain: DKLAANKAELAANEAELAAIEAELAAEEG
The following applies: mean of both orientations.

The target of a further assay is T12, APC2543-AA.
T12 chain: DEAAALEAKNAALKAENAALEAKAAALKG
The following applies: mean of both orientations.

The next assay addresses T13, APC2981-AA.
T13 chain: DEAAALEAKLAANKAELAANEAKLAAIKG
To be noted: mean of both orientations.

A further assay concerns the target T14, APC4336-AA.
T14 chain: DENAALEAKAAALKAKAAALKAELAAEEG
To be noted: mean of both orientations.

A further assay deals with T15, APC6088-AA.
T15 chain: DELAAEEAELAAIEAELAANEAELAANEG
The following applies: mean of both orientations.

The target in the next assay is T16, APC9141-AA.
T16 chain: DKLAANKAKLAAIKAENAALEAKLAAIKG
To be noted: mean of both orientations.

A further assay concerns the target T17, APC7524-AA.
T17 chain: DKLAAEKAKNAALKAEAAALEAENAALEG
To be noted: mean of both orientations.

Another assay deals with T18, APC3881-AA.
T18 chain: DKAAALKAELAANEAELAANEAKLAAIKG
The following applies: mean of both orientations.

Another assay concerns the target T19, APC3265-AA.
T19 chain: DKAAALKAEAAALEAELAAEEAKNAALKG
To be noted: mean of both orientations.

The target in another assay is T20, APC4100-AA.
T20 chain: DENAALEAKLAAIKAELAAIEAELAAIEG
To be noted: mean of both orientations.

The target of a further assay is T21, APC8516-AA.
T21 chain: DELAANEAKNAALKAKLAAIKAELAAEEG
The following applies: mean of both orientations.

The target in the next assay is T22, APC9182-AA.
T22 chain: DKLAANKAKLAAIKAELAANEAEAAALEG
To be noted: mean of both orientations.

Another assay deals with T23, APC2811-AA.
T23 chain: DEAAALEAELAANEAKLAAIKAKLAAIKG
To be noted: mean of both orientations.

The target in the next assay is T24, APC5009-AA.
T24 chain: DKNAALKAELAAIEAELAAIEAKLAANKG
To be noted: mean of both orientations.

For the molecule DEAAALEAKAAALKAKLAAEKAKNAALKG [APC2375-AA], the interaction score was -1.77 with APC5531-AA; -1.88 in the assay with APC9291-AA; -1.83 in the assay with APC542-AA; -1.67 in the assay with APC3354-AA; -1.42 with APC2556-AA; -1.59 in the assay with APC2474-AA. For the same molecule, the interaction score in the assay with APC2375-AA is -1.68; in the assay with APC8401-AA, -0.731; with APC3323-AA, -1.82; in the assay with APC2724-AA, -1.62; with APC9806-AA, -1.72; with APC2543-AA, -1.57. The interaction score with APC2981-AA was -1.45; with APC4336-AA it was -1.65; in the assay with APC6088-AA, -1.06; in the assay with APC9141-AA it was -1.6; with APC7524-AA it was -1.49; in the assay with APC3881-AA, -1.74. The interaction score with APC3265-AA was -1.44; in the assay with APC4100-AA, -1.47; in the assay with APC8516-AA, -1.58; with APC9182-AA it was -1.83; in the assay with APC2811-AA it was -1.74; in the assay with APC5009-AA, -0.913.
